Experimental data from the Human Domainome abundance scans (Beltran et al. 2025).

B1: POU domain, class 2, transcription factor 1, residues 285 to 354; numbered along this chain, P14859 (parent)
chain: LEELEQFAKTFKQRRIKLGFTQGDVGLAMGKLYGNDFSQTTISRFEALNLSFKNMCKLKPLLEKWLNDAE

Variants of: B1
Assay: abundance fitness (aPCA) (normalised: wild type 0, dead -1); higher = more abundant; growth selection in yeast, the domain comes from the species named
Settings: Homo sapiens

Abundance fitness: each site, then its substitutions
L4: F -0.483, M -0.022, S -0.263, V -0.145
G19: M -0.471, D -0.314, S -0.288, V -0.214, A -0.391, H -0.564
K9: R 0.011
G26: Y -0.043, N -0.033, S 0.025, V -0.005, L -0.054, M -0.04, H -0.098, E -0.025, T -0.038, R -0.087, A -0.027, K -0.095, P -0.276, C -0.043, I -0.076, W -0.051, F -0.082, D -0.052, Q -0.014
G23: T -0.004, K 0.065, Y -0.028, S -0.021, D 0.023, H 0.013, L -0.009, A 0.025, P -0.11, Q -0.023, M -0.023, E 0.017, C -0.073, R -0.071, V 0.113, N 0.013, W -0.069
F11: L -0.147, R -0.955, M -0.166, W -0.105, P -1.04, I -0.402, A -0.166, V -0.239, D -1.19, K -1.09, Q -1.11, E -1.12, S -0.206, N -1.09, Y -0.238, C -0.11, G -0.848
R14: M -0.089, E 0.028, W -0.296, T -0.024, P -1.05, S -0.052, N -0.29, V -0.004, A -0.048, G -0.067, Q -0.1, H -0.156, F -0.32, K 0.004, L -0.105, Y -0.384, C -0.233
L18: R -0.143, M -0.067, I -0.261, Y -0.041, C -0.1, D -0.601, P -0.955, W -0.237, N -0.408, T -0.386, S -0.094, V -0.192, H -0.277, G -0.312, E -0.326, A -0.046
F20: T -0.253, K -0.073, S -0.197, R -0.092, Y 0.06, E -0.372, C -0.016, L -0.081, D -0.706, Q -0.038, A -0.035, V -0.024, N -0.197, P -0.827, W 0.004, H -0.045
K17: N 0.076, C -0.046, P -0.966, M -0.007, E 0.01, S -0.003, L -0.016, V -0.06, I -0.1, D 0.001, G -0.027, W -0.037, T -0.029, Q -0.023, R -0.166, Y -0.07
L27: E -0.002, D -0.136, A 0.073, C 0.039
Q13: L -0.005, V -0.014, S -0.005, Y 0.011, P -0.202, T 0.023, F -0.054, A -0.02, M -0.024, R -0.061, I -0.121, C -0.235, N -0.049, K 0.042, H 0.015, E -0.01, W -0.188
F7: V 0.191, I -0.298, L -0.297, M -0.263, C -0.011, W 0.123, G -0.07, A -0.355, R -0.437, S -0.324
T21: D -0.191, P -0.423, Q -0.131, K -0.065, N -0.029, R -0.198, G -0.113, I -0.598, W -0.753, E -0.191, H -0.191, F -0.693, L -0.284, V -0.482, A -0.158
A8: I -0.008, M -0.205, S -0.082, Q -0.283, D -0.968, W -0.528, L -0.252, P -0.447, V 0.01, C -0.05, F -0.602, H -0.499, N -0.625, T 0.004, K -0.72, R -0.154
T10: V -0.059, K -0.014, R -0.038, H 0.019, C -0.041, Y -0.063, G -0.047, P -0.945, N 0.004, M -0.052, F 0.023, L -0.013, E 0.04, I 0.01, Q -0.012, D -0.08, S -0.027
V25: L -0.349, S -0.843, F -0.372, A -0.049, I -0.094, G -0.711, D -0.504, P -0.687, W -0.645
Q22: W -0.072, S -0.005, G -0.099, K 0.048, I -0.076, C 0.031, A -0.014, P 0.001, L -0.001, R -0.011, H -0.118, Y -0.029, M -0.134, D -0.035, V 0, T -0.011, F -0.129, E -0.024, N -0.119
R15: P -1.09, N -0.902, I -1.1, A -0.835, F -0.533, G -1.03, K -1.09, H -0.725, Y -0.387, V -0.815, C -0.655, L -0.826, W -0.953, E -0.971, S -0.974, T -1.03
D24: R -0.151, H -0.06, T -0.089, V -0.218, K -0.124, S -0.097, L -0.192, E -0.008, Y -0.164, G -0.091, P -0.846, M -0.11, W -0.238, A -0.058
K12: A 0.006, R 0.015, W -0.364, P -0.085, F -0.307, S -0.044, V -0.05, Y -0.157, M -0.062, C -0.041, E -0.046, H -0.084, L -0.156, T -0.012, N -0.107, I -0.007, G -0.146
Q6: G -0.012, P -0.245, V -0.076, K 0.034, M -0.038, T 0.025, D -0.086, E 0.034, A 0.015, N 0.074, Y -0.03, F -0.059, W -0.058, I -0.009, L -0.031, H -0.001, S -0.017
E5: F -0.13, D -0.072, Y -0.071, Q -0.125, A -0.022, L -0.022, C -0.114, R -0.034, I -0.1, P -0.571, M -0.028, K -0.017, T -0.004, S -0.039, G -0.019, H -0.116, N -0.059
I16: P -1.07, M 0.004, A -0.039, R -0.169, T -0.03, C -0.325, V -0.017, Y -0.117, E 0.073, G -0.207, L -0.007, W -0.269, N -0.105, F -0.131, D -0.2, K -0.021, S -0.018
